The results in this text go back to FireProtDB (doi:10.1021/bi00072a011).

For this series the following is noted: Salmonella typhimurium (strain LT2 / SGSC1412 / ATCC 700720); pH 7.8; 25 °C; Urea; CD; Potassium phosphate 10 mM; transition: 3; whole UniProt chain shown.

Several values for one entry are separate records, joined by “and”; a condition that tells them apart may be missing. Equal entries are not always repeated.

B1: Tryptophan synthase alpha chain wild type, P00929 (protein)
chain: MERYENLFAQLNDRREGAFVPFVTLGDPGIEQSLKIIDTLIDAGADALELGVPFSDPLADGPTIQNANLRAFAAGVTPAQCFEMLALIREKHPTIPIGLLMYANLVFNNGIDAFYARCEQVGVDSVLVADVPVEESAPFRQAALRHNIAPIFICPPNADDDLLRQVASYGRGYTYLLSRSGVTGAENRGALPLHHLIEKLKEYHAAPALQGFGISSPEQVSAAVRAGAAGAISGSAIVKIIEKNLASPKQMLAELRSFVSAMKAASRA
On to B1, for which the denaturant m value was 2.7 kcal/mol/M and 1.6 kcal/mol/M; the “denaturant midpoint (higher = more stable)” value was 2.75 M and 3.63 M; the unfolding free energy was 7.4 kcal/mol and 5.8 kcal/mol.
